IntAct's records for PubMed 18940604

B1: Ras-related protein Rab-3A (Mus musculus), P63011 (parent)
chain: MASATDSRYGQKESSDQNFDYMFKILIIGNSSVGKTSFLFRYADDSFTPAFVSTVGIDFKVKTIYRNDKRIKLQIWDTAGQERYRTITTAYYRGAMGFILMYDITNEESFNAVQDWSTQIKTYSWDNAQVLLVGNKCDMEDERVVSSERGRQLADHLGFEFFEASAKDNINVKQTFERLVDVICEKMSESLDTADPAVTGAKQGPQLTDQQAPPHQDCAC
partner: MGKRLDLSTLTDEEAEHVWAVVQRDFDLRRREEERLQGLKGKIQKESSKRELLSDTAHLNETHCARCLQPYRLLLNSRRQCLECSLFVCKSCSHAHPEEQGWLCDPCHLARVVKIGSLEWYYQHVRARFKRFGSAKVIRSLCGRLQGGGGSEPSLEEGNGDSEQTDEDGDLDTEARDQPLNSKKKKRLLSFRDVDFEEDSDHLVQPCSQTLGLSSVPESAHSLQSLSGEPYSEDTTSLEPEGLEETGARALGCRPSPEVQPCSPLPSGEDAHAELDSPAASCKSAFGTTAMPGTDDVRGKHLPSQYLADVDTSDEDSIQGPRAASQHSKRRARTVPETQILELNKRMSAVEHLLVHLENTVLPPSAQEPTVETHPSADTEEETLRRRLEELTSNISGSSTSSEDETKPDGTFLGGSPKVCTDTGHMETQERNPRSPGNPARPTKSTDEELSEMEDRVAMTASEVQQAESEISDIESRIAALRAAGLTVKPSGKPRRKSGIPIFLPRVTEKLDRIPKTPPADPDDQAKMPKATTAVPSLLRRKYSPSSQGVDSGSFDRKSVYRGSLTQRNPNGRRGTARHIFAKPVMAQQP
B2: Ras-related protein Rab-27A (Mus musculus), Q9ERI2 (parent)
chain: MSDGDYDYLIKFLALGDSGVGKTSVLYQYTDGKFNSKFITTVGIDFREKRVVYRANGPDGAVGRGQRIHLQLWDTAGQERFRSLTTAFFRDAMGFLLLFDLTNEQSFLNVRNWISQLQMHAYCENPDIVLCGNKSDLEDQRAVKEEEARELAEKYGIPYFETSAANGTNISHAIEMLLDLIMKRMERCVDKSWIPEGVVRSNGHTSADQLSEEKEKGLCGC
partner: B1 partner

Variants of: B1
Settings: with melph_mouse Mlph

Effect of a mutation on the interaction, disrupting interaction:
I87L;Y91F;G94D
G94D
F19Y
F19Y;G94D

Variants of: B2
Settings: with melph_mouse Mlph

Effect of a mutation on the interaction, disrupting interaction:
Y6F;L84I;F88Y;D91G
Y6F
